± gives the uncertainty stated by the source.
Assay: protein stability index of a GFP-peptide fusion (yeast GPS) (PSI 1-4); higher = more stable; sorted into four equal gates, so the index is relative within each strain
Summary of the method: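 Yeast carrying a pooled library were grown to mid-log phase in leucine-free medium. Each library plasmid expresses Cherry and has a tiled 17-residue yeast protein peptide fused downstream of GFP. Cells were sorted into four equal gates by GFP/Cherry ratio, and plasmids from each gate were PCR-amplified, Illumina-sequenced and assigned to strains by barcode. Summing, across gates, the read frequency times the gate number gave each peptide's protein stability index.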

Sequence: KRQFNNSYWLIILLGVL [ITC1]
- protein stability index (doa10∆): 2.16 ± 0.066
- protein stability index (pdr5∆): 1.6 ± 0.056
- protein stability index (san1∆): 1.5 ± 0.1
- protein stability index (ubr1∆): 1.97 ± 0.04

Sequence: KRQYVKQFLTKDLKFPL [RPL20A]
- protein stability index (doa10∆): 3 ± 0.055
- protein stability index (pdr5∆): 2.94 ± 0.061
- protein stability index (san1∆): 2.76 ± 0.063
- protein stability index (ubr1∆): 2.83 ± 0.04

Sequence: KRRIEEEQEKINSAPDF [ISW2]
- protein stability index (doa10∆): 3.4 ± 0.2
- protein stability index (pdr5∆): 3.58 ± 0.22
- protein stability index (san1∆): 2.98 ± 0.15
- protein stability index (ubr1∆): 3.57 ± 0.099

Sequence: KRSGVIETVDDKLKDIV [ITC1]
- protein stability index (doa10∆): 3.15 ± 0.29
- protein stability index (pdr5∆): 3 ± 0.3

Sequence: KRVPNPNFLGNCNIKDF [SWP82]
- protein stability index (doa10∆): 2.05 ± 0.051
- protein stability index (pdr5∆): 2.36 ± 0.04
- protein stability index (san1∆): 2 ± 0.056
- protein stability index (ubr1∆): 2.22 ± 0.032

Sequence: KRVTIQKKDIKLARRLR [HHT1]
- protein stability index (doa10∆): 3.15 ± 0.14
- protein stability index (pdr5∆): 2.87 ± 0.17
- protein stability index (ubr1∆): 3.05 ± 0.088

Sequence: KRYRLKESQLPRIQRAD [RPB5]
- protein stability index (doa10∆): 2.86 ± 0.17
- protein stability index (pdr5∆): 3.16 ± 0.15
- protein stability index (san1∆): 3.02 ± 0.1
- protein stability index (ubr1∆): 3.07 ± 0.082

Sequence: KSESDELQMRSFLKEGD [RRP4]
- protein stability index (doa10∆): 3.18 ± 0.13
- protein stability index (pdr5∆): 2.71 ± 0.23
- protein stability index (san1∆): 3.09 ± 0.12
- protein stability index (ubr1∆): 3.16 ± 0.096

Sequence: KSFISKLLGIGDIESLF [SRP54]
- protein stability index (doa10∆): 1.56 ± 0.061
- protein stability index (pdr5∆): 1.82 ± 0.077
- protein stability index (san1∆): 2.2 ± 0.12
- protein stability index (ubr1∆): 2.1 ± 0.12

Sequence: KSIDSKTPEEVEVYAKI [ISW2]
- protein stability index (doa10∆): 1.88 ± 0.078
- protein stability index (san1∆): 2.88 ± 0.14
- protein stability index (ubr1∆): 3.01 ± 0.12

Sequence: KSITLKGRNNESNNKKY [YDL088C/ASM4]
- protein stability index (doa10∆): 3.19 ± 0.086
- protein stability index (pdr5∆): 3.11 ± 0.066
- protein stability index (san1∆): 3.13 ± 0.059
- protein stability index (ubr1∆): 3.08 ± 0.064

Sequence: KSLAMEHKSQVVLYNYY [CSN12]
- protein stability index (doa10∆): 1.19 ± 0.053
- protein stability index (pdr5∆): 1.34 ± 0.071
- protein stability index (san1∆): 1.32 ± 0.11
- protein stability index (ubr1∆): 1.55 ± 0.035

Sequence: KSLDSIPMSKTIKDLVG [FAS2]
- protein stability index (doa10∆): 3.26 ± 0.12
- protein stability index (pdr5∆): 2.97 ± 0.092
- protein stability index (san1∆): 2.79 ± 0.13
- protein stability index (ubr1∆): 3.16 ± 0.075

Sequence: KSLGGGAALKDIEIVRV [FAS2]
- protein stability index (doa10∆): 2.27 ± 0.26
- protein stability index (pdr5∆): 3.39 ± 0.15
- protein stability index (san1∆): 3.17 ± 0.088

Sequence: KSLHEMNERDWRILKED [PRP28]
- protein stability index (doa10∆): 3.4 ± 0.19
- protein stability index (pdr5∆): 3.05 ± 0.2
- protein stability index (san1∆): 3.33 ± 0.072
- protein stability index (ubr1∆): 3.01 ± 0.23

Sequence: KSMNKSAINQYNRRQDK [SNF2]
- protein stability index (doa10∆): 2.26 ± 0.075
- protein stability index (pdr5∆): 2.63 ± 0.082
- protein stability index (san1∆): 2.44 ± 0.058
- protein stability index (ubr1∆): 2.48 ± 0.083

Sequence: KSRIVKVVGPRGTLTKN [RPL9A]
- protein stability index (doa10∆): 2.66 ± 0.074
- protein stability index (pdr5∆): 2.92 ± 0.058
- protein stability index (san1∆): 2.65 ± 0.052
- protein stability index (ubr1∆): 2.71 ± 0.033

Sequence: KSTASTAAANTEKLSNG [YOR098C/NUP1]
- protein stability index (doa10∆): 2.91 ± 0.23
- protein stability index (pdr5∆): 3.11 ± 0.16
- protein stability index (san1∆): 3.1 ± 0.12
- protein stability index (ubr1∆): 3.31 ± 0.091

Sequence: KSTTPYVSALKRINKFL [POP7]
- protein stability index (doa10∆): 2.04 ± 0.047
- protein stability index (pdr5∆): 1.55 ± 0.036
- protein stability index (san1∆): 2 ± 0.067
- protein stability index (ubr1∆): 1.63 ± 0.034

Sequence: KSVKFVQGLLQNAAANA [RPL17A]
- protein stability index (doa10∆): 2.56 ± 0.065
- protein stability index (pdr5∆): 2.65 ± 0.068
- protein stability index (san1∆): 2.28 ± 0.05
- protein stability index (ubr1∆): 2.46 ± 0.034

Sequence: KSVYETPKITAAEKSFK [SEC65]
- protein stability index (pdr5∆): 2.08 ± 0.19
- protein stability index (ubr1∆): 1.53 ± 0.08

Sequence: KTEDGFVIPALPAAVSK [RPC82]
- protein stability index (pdr5∆): 2.41 ± 0.26
- protein stability index (ubr1∆): 2.8 ± 0.2

Sequence: KTEDPKGGIIASVGDIL [YML031W/NDC1]
- protein stability index (doa10∆): 2.57 ± 0.067
- protein stability index (pdr5∆): 2.62 ± 0.051
- protein stability index (san1∆): 2.43 ± 0.046
- protein stability index (ubr1∆): 2.12 ± 0.04

Sequence: KTEPVGTGLQSYLEERE [RPC53]
- protein stability index (doa10∆): 3.4 ± 0.25
- protein stability index (pdr5∆): 3.24 ± 0.13
- protein stability index (san1∆): 3.21 ± 0.12
- protein stability index (ubr1∆): 3.2 ± 0.11

Sequence: KTGTKPAAVFAETLKHD [RPL4B]
- protein stability index (doa10∆): 2.17 ± 0.078
- protein stability index (pdr5∆): 1.95 ± 0.18
- protein stability index (san1∆): 1.63 ± 0.16
- protein stability index (ubr1∆): 2 ± 0.15

Sequence: KTLNLFKQIKSADCELL [RPO31]
- protein stability index (doa10∆): 1.22 ± 0.21
- protein stability index (pdr5∆): 1.06 ± 0.035
- protein stability index (san1∆): 1.23 ± 0.29
- protein stability index (ubr1∆): 1.05 ± 0.094

Sequence: KTMKTFVIHIQEKNFQT [RPB5]
- protein stability index (doa10∆): 2.05 ± 0.091
- protein stability index (pdr5∆): 1.85 ± 0.072
- protein stability index (san1∆): 1.88 ± 0.14
- protein stability index (ubr1∆): 2.56 ± 0.088

Sequence: KTRNPLTHSTPKNFGIG [RPL8A]
- protein stability index (doa10∆): 3.02 ± 0.084
- protein stability index (pdr5∆): 2.9 ± 0.058
- protein stability index (san1∆): 2.95 ± 0.046
- protein stability index (ubr1∆): 3.07 ± 0.054

Sequence: KTTITRVEPETFEIPQA [SWI3]
- protein stability index (doa10∆): 2.38 ± 0.066
- protein stability index (pdr5∆): 2.81 ± 0.081
- protein stability index (san1∆): 2.84 ± 0.072
- protein stability index (ubr1∆): 2.38 ± 0.054

Sequence: KTYNKLHYCVSCAIHAR [RPS26A]
- protein stability index (doa10∆): 1.21 ± 0.055
- protein stability index (pdr5∆): 1.33 ± 0.087
- protein stability index (san1∆): 1.31 ± 0.14
- protein stability index (ubr1∆): 1.2 ± 0.12

Sequence: KVAQLRQTGPAKINEVY [NSL1]
- protein stability index (doa10∆): 2.97 ± 0.14
- protein stability index (pdr5∆): 3.04 ± 0.15
- protein stability index (san1∆): 2.84 ± 0.1
- protein stability index (ubr1∆): 3.58 ± 0.11

Sequence: KVFIRESLSLKNIHISK [YML103C/NUP188]
- protein stability index (doa10∆): 2.09 ± 0.039
- protein stability index (pdr5∆): 2.21 ± 0.045
- protein stability index (san1∆): 2.01 ± 0.057
- protein stability index (ubr1∆): 1.92 ± 0.03

Sequence: KVIEEQLKHTKLALAEN [SMC4]
- protein stability index (doa10∆): 1.89 ± 0.12
- protein stability index (pdr5∆): 1.78 ± 0.1
- protein stability index (san1∆): 1.32 ± 0.15
- protein stability index (ubr1∆): 2.23 ± 0.098

Sequence: KVISEILTKEVQGSTLA [RPS1A]
- protein stability index (doa10∆): 2.29 ± 0.026
- protein stability index (pdr5∆): 2.336 ± 0.023
- protein stability index (san1∆): 2.29 ± 0.03
- protein stability index (ubr1∆): 2.194 ± 0.018

Sequence: KVISEILTREVQNSTLA [RPS1B]
- protein stability index (doa10∆): 2.51 ± 0.11
- protein stability index (pdr5∆): 2.86 ± 0.1
- protein stability index (san1∆): 2.64 ± 0.069
- protein stability index (ubr1∆): 2.32 ± 0.059

Sequence: KVKAGVRSANEDGTFSV [RRP43]
- protein stability index (doa10∆): 3.2 ± 0.097
- protein stability index (pdr5∆): 3.24 ± 0.11
- protein stability index (san1∆): 3.48 ± 0.061
- protein stability index (ubr1∆): 3.43 ± 0.077

Sequence: KVLAAHTKFEVAIGLNG [RRP40]
- protein stability index (doa10∆): 2.44 ± 0.088
- protein stability index (pdr5∆): 2.56 ± 0.062
- protein stability index (san1∆): 2.34 ± 0.072
- protein stability index (ubr1∆): 2.89 ± 0.057

Sequence: KVLARQQLQVLARYLKM [FAS2]
- protein stability index (doa10∆): 1.41 ± 0.081
- protein stability index (pdr5∆): 1.47 ± 0.083
- protein stability index (san1∆): 1.75 ± 0.15
- protein stability index (ubr1∆): 2.1 ± 0.12

Sequence: KVLLDSKDVQQIDYKLE [RPS7A]
- protein stability index (doa10∆): 2.69 ± 0.21
- protein stability index (pdr5∆): 3.15 ± 0.15
- protein stability index (san1∆): 3.31 ± 0.061
- protein stability index (ubr1∆): 3.2 ± 0.12

Sequence: KVSDPYVPTRNTFNYDV [RPN4]
- protein stability index (doa10∆): 2.25 ± 0.14
- protein stability index (pdr5∆): 2.39 ± 0.17
- protein stability index (san1∆): 1.8 ± 0.28
- protein stability index (ubr1∆): 2.08 ± 0.085

Sequence: KVSGVSLLALWKEKKEK [RPS23A]
- protein stability index (doa10∆): 2.55 ± 0.22
- protein stability index (pdr5∆): 1.59 ± 0.1
- protein stability index (san1∆): 1.78 ± 0.1
- protein stability index (ubr1∆): 1.77 ± 0.11

Sequence: KVTEKVLTQLTALALKY [CSI1]
- protein stability index (doa10∆): 2.24 ± 0.044
- protein stability index (pdr5∆): 2 ± 0.029
- protein stability index (san1∆): 2 ± 0.039
- protein stability index (ubr1∆): 2.13 ± 0.044

Sequence: KVVNGNSADAAYAQVEI [FAS2]
- protein stability index (doa10∆): 2.53 ± 0.063
- protein stability index (pdr5∆): 2.67 ± 0.07
- protein stability index (san1∆): 2.14 ± 0.068
- protein stability index (ubr1∆): 2.42 ± 0.057

Sequence: KWKPVLSHIVYFLVLSP [RPN5]
- protein stability index (doa10∆): 1.39 ± 0.033
- protein stability index (pdr5∆): 1.25 ± 0.031
- protein stability index (san1∆): 1.2 ± 0.057
- protein stability index (ubr1∆): 1.15 ± 0.025

Sequence: KYDRILKEVPTYRYVSV [RPS25A]
- protein stability index (san1∆): 2.87 ± 0.22
- protein stability index (ubr1∆): 2.89 ± 0.14

Sequence: KYDRKVPSPTGEYVKEP [RPO21]
- protein stability index (doa10∆): 2.98 ± 0.1
- protein stability index (pdr5∆): 3.22 ± 0.071
- protein stability index (san1∆): 2.81 ± 0.089
- protein stability index (ubr1∆): 3.09 ± 0.04

Sequence: KYKQLLLKDDTYQLCVR [RPN3]
- protein stability index (doa10∆): 1.46 ± 0.073
- protein stability index (pdr5∆): 1.78 ± 0.29
- protein stability index (ubr1∆): 1.6 ± 0.18

Sequence: KYLDQVLDHQRAIPFRR [RPL17B]
- protein stability index (doa10∆): 2.78 ± 0.12
- protein stability index (pdr5∆): 2.35 ± 0.076
- protein stability index (san1∆): 1.87 ± 0.13
- protein stability index (ubr1∆): 1.61 ± 0.066

Sequence: KYLIKYNVFRQHTSFQE [CSI1]
- protein stability index (doa10∆): 1.24 ± 0.069
- protein stability index (pdr5∆): 1.2 ± 0.046
- protein stability index (san1∆): 1.13 ± 0.14
- protein stability index (ubr1∆): 1.19 ± 0.058

Sequence: KYLKKRKIGISIDDHPY [RPC31]
- protein stability index (doa10∆): 1.41 ± 0.075
- protein stability index (pdr5∆): 1.33 ± 0.081
- protein stability index (san1∆): 1.77 ± 0.099
- protein stability index (ubr1∆): 1.74 ± 0.051

Sequence: KYLSDIMELPGVYSDDE [SRP68]
- protein stability index (doa10∆): 3.14 ± 0.25
- protein stability index (pdr5∆): 3.08 ± 0.17
- protein stability index (san1∆): 3.59 ± 0.17
- protein stability index (ubr1∆): 3.36 ± 0.11

Sequence: KYPMYMQLEEELMKLDG [MED6]
- protein stability index (doa10∆): 2.14 ± 0.091
- protein stability index (pdr5∆): 1.44 ± 0.084
- protein stability index (san1∆): 1.39 ± 0.16
- protein stability index (ubr1∆): 1.36 ± 0.06

Source: the supplement of paper PMC9732359
